Measurements as given in patent publication US9976167B2, “Group of glycosyltransferases and use thereof” (Shanghai Institutes For Biological Sciences, Chinese …, priority 2012, dated 2018).

Tests used:
Format in all cases: biochemical
[1] = Glycosyltransfering reaction with crude enzyme, substrate PPT; conditions: for glycosylation of C6-OH of PPT (product Rg1 or Rh1) / glycosylation of C20-OH of PPT (product F1): crude enzyme: lysate supernatant of recombinant yeast, UDP-glucose
Method: (§1) The lysate supernatant of the recombinant yeasts expressing the empty vector was used as control.
(§2) The reaction was conducted under 35° C. for 12 hrs, then stopped by adding 100 μL of butanol. The product were extracted, dried in vacuum, and dissolved in methanol.
(§3) The reaction products were first detected by thin layer chromatography (TLC).
(§4) The converted products of gGT25 were further identified by HPLC (FIG. 10 and FIG. 11). The retention time of peak 2 was identical to that of the CK standard sample; the retention time of peak 3 was identical to that of PPD. […] Peak 1, also present in the profile of the negative control, indicated its irrelevance to the conversion of PPD. 3 peaks were shown in FIG. 11, the retention time of peak 1 was identical to that of F1 standard sample and peak 3 was identical to that of PPT. […] Peak 2, also present in the profile of the negative control, indicated its irrelevance to the conversion of PPT.
(§5) According to the method as in Example 4, the cell lysate of recombinant yeasts expressing gGT13 and gGT30 were used to catalyze PPD and PPT.
(§6) The glycosyltransfering reactions of ginsenosides and ginsengenins were catalyzed by using the lysis supernatant of the recombinant yeasts expressing 3GT1, 3GT2, 3GT3 and 3GT4 as crude enzymes. The lysis supernatant of recombinant E. coli expressing empty vectors was used as control. The 100 μL reaction system is shown as Table 3. The reaction was conducted under 35° C. for 12 hrs, then stopped by adding 100 μL of butanol. The product were extracted, dried in vacuum, and dissolved in methanol.

[2] = Glycosyltransfering reaction with crude enzyme, substrate CK; conditions: crude enzyme of Example 11; 35° C., 12 hrs; TLC
Method: as §5, §6

[3] = Glycosyltransfering reaction with crude enzyme, substrate PPD; conditions: for glycosylation of C20-OH of PPD (product CK): crude enzyme: lysate supernatant of recombinant yeast
Method: as §1, §2, §3, §4, §5
The cell lysis supernatant of the recombinant E. coli was used as crude enzyme to conduct the glycosyltransfering reaction, and the reaction condition was identical to that of Example 4.
The reaction was conducted under 35° C. for 12 hrs. 100 μL of butanol was added to stop the reaction and the products were extracted. Upon vacuum drying, the product was dissolved by methanol. TLC was first used to detect the reaction product.
as §6
The reaction was conducted under 35° C. for 12 hrs, and then stopped by adding 100 μL of butanol. The product were extracted, dried in vacuum, and dissolved in methanol. The reaction products were first detected by thin layer chromatography (TLC) (FIG. 35).

[4] = Glycosyltransfering reaction with crude enzyme, substrate PPT; conditions: crude enzyme: lysate supernatant of recombinant E. coli; UDP-glucose, 35° C., 12 hrs; TLC
[5] = Glycosyltransfering reaction with crude enzyme, substrate 25-OH-PPD; conditions: 35° C., 12 hrs, TLC
Method: as §6

[6] = Glycosyltransfering activities on ginsengenins and saponins: glycosylation site and specificity (summary); conditions: for extension of carbohydrate chain: crude enzyme: lysate supernatant of recombinant yeast, UDP-glucose, 35° C., 12 hrs, TLC
Method: More than 100 predicted cDNA sequences of glycosyltransferases were extracted from the published expression profile data of the Panax plant. 60 cDNAs with full length were cloned, expressed, and subjected to the analysis of glycosyltransfering reaction.
as §1, §2, §6
(§7) The lysate supernatant of the recombinant yeast expressing empty vectors was used as control. The reaction was conducted under 35° C. for 12 hrs, and then stopped by adding 100 μL of butanol. The product were extracted, dried in vacuum, and dissolved in methanol.
(§8) The glycosyltransfering reactions of ginsenosides Rh2 and F2 were catalyzed by using the lysate supernatant of the recombinant yeasts expressing 3GT1, 3GT2, 3GT3 and 3GT4 as crude enzymes. The 100 μL reaction system is shown as Table 3. The reaction was conducted under 35° C. for 12 hrs, and then stopped by adding 100 μL of butanol. The product were extracted, dried in vacuum, and dissolved in methanol.

[7] = Glycosyltransfering reaction with crude enzyme, substrate Rh1; conditions: crude enzyme: lysate supernatant of recombinant yeast; UDP-glucose, 35° C., 12 hrs; TLC
Method: as §1, §2
(§9) The reaction products were first detected by thin layer chromatography (TLC). […]

[8] = Glycosyltransfering reaction with crude enzyme, substrate Rg2; conditions: crude enzyme: lysate supernatant of recombinant yeast; UDP-glucose, 35° C., 12 hrs; TLC
Method: as §1, §2, §3

[9] = Glycosyltransfering reaction with crude enzyme, substrate Rg3; conditions: crude enzyme: lysate supernatant of recombinant yeast; UDP-glucose, 35° C., 12 hrs; TLC
Method: as §1, §2, §9

[10] = Glycosyltransfering reaction with crude enzyme, substrate Rh2; conditions: crude enzyme: lysate supernatant of recombinant yeast; UDP-glucose, 35° C., 12 hrs; TLC
Method: as §1, §2, §9, §7, §8

[11] = Glycosyltransfering reaction with crude enzyme, substrate DM; conditions: crude enzyme: lysate supernatant of recombinant yeast; UDP-glucose, 35° C., 12 hrs; TLC
Method: as §1, §2, §3, §6

[12] = Glycosyltransfering reaction with crude enzyme, substrate Rf; conditions: crude enzyme: lysate supernatant of recombinant yeast; UDP-glucose, 35° C., 12 hrs; TLC
Method: as §1, §2, §3

[13] = Table 2, tetracyclic triterpenoid substrates
[14] = crude enzyme from recombinant yeast, HPLC
[15] = UDP-glucose, 35° C., 12 hrs, TLC

B1: 3GT3: glycosyltransferase protein with 497 amino acids, SEQ ID NO.: 41; homology with a Medicago truncatula glycosyltransferase higher than 99% (protein, listed as Medicago truncatula)
chain: MEGVEVEQPLKVYFIPFLASGHMIPLFDIATMFASRGQQVTVITTPANAKSLTKSLSSDAPSFLRLHTVDFPSQQVGLPEGIESMSSTTDPTTTWKIHTGAMLLKEPIGDFIENDPPDCIISDSTYPWVNDLADKFQIPNITFNGLCLFAVSLVETLKTNNLLKSQTDSDSDSSSFVVPNFPHHITLCGKPPKVIGIFMGMMLETVLKSKALIINNFSELDGEECIQHYEKATGHKVWHLGPTSLIRKTAQEKSERGNEGAVNVHESLSWLDSERVNSVLYICFGSINYFSDKQLYEMACAIEASGHPFIWVVPEKKGKEDESEEEKEKWLPKGFEERNIGKKGLIIRGWAPQVKILSHPAVGGFMTHCGGNSTVEAVSAGVPMITWPVHGDQFYNEKLITQFRGIGVEVGATEWCTSGVAERKKLVSRDSIEKAVRRLMDGGDEAENIRLRAREFGEKAIQAIQEGGSSYNNLLALIDELKRSRDLKRLRDLKLDD
modifications: 3GT3
- glycosylation of C3-OH of PPT (product 3-O-β-(D-glucopyranosyl)-PPT) ([1]; crude enzyme of Example 11, 35° C., 12 hrs, TLC): could be glycosylated
- glycosylation of C3-OH of CK (product F2) [2]: further glycosylating its C3-OH
- substrate that could be catalyzed: PPD ([3]; crude enzyme: lysate supernatant of recombinant E. coli, UDP-glucose, 35° C., 12 hrs, TLC): ✓
- substrate that could be catalyzed: PPT [4]: ✓
- glycosylation of C3-OH of 25-OH-PPD (product 3-O-β-(D-glucopyranosyl)-25-OH-PPD) ([5]; crude enzyme of Example 11): could be glycosylated
- substrate that could be catalyzed: 25-OH-PPD ([5]; crude enzyme: lysate supernatant of recombinant E. coli, UDP-glucose): ✓
- glycosylation site: C-3 [6, 13]: ✓
- substrate spectrum / specificity ([6]; comparison of 3GT1, 3GT2, 3GT3 and 3GT4, Table 6): least number of substrates

B2: gGT25: glycosyltransferase protein with 475 amino acids, amino acid sequence SEQ ID NO.: 2, cloned from P. ginseng cDNA (protein)
chain: MKSELIFLPAPAIGHLVGMVEMAKLFISRHENLSVTVLIAKFYMDTGVDNYNKSLLTNPTPRLTIVNLPETDPQNYMLKPRHAIFPSVIETQKTHVRDIISGMTQSESTRVVGLLADLLFINIMDIANEFNVPTYVYSPAGAGHLGLAFHLQTLNDKKQDVTEFRNSDTELLVPSFANPVPAEVLPSMYVDKEGGYDYLFSLFRRCRESKAIIINTFEELEPYAINSLRMDSMIPPIYPVGPILNLNGDGQNSDEAAVILGWLDDQPPSSVVFLCFGSYGSFQENQVKEIAMGLERSGHRFLWSLRPSIPKGETKLQLKYSNLKEILPVGFLDRTSCVGKVIGWAPQVAVLGHESVGGFLSHCGWNSTLESVWCGVPVATWPMYGEQQLNAFEMVKELGIAVEIEVDYKKDYFNMKNDFIVRAEEIETKIKKLMMDENNSEIRKKVKEMKEKSRAAMSENGSSYNSLAKLFEEIM
modifications: Panax ginseng; gGT25
- transformation of PPT into F1 [1, 14]: substantially transformed
- glycosylation of C6-OH of PPT (product Rg1 or Rh1) ([1]; 35° C., 12 hrs, TLC): C6-OH could be further glycosylated
- glycosylation of C20-OH of PPT (product F1) ([1]; 35° C., 12 hrs, TLC): glycosylated the C20-OH
- glycosylation of C20-OH of Rh1 [7]: could not be catalyzed
- glycosylation of C20-OH of Rg2 [8]: could not be catalyzed
- transformation of PPD into CK [3, 14]: substantially transformed
- transformation of PPD into CK ([3]; crude enzyme: cell lysis supernatant of recombinant E. coli, 35° C., 12 hrs, TLC): could transform PPD into CK
- glycosylation of C20-OH of PPD (product CK) [3, 15]: glycosylated the C20-OH
- glycosylation of C20-OH of Rg3 (product Rd) [9]: further glycosylated at C20-OH
- glycosylation of C20-OH of Rh2 (product F2) [10]: further glycosylated at C20-OH
- glycosylation of C20-OH of DM (product 20-O-β-(D-glucopyranosyl)-dammarendiol II) [11]: could also glycosylate C20-OH
- glycosylation of C20-OH of Rf [12]: could not be catalyzed
- glycosylation site: C6 [6, 13]: ✓
- glycosylation site: C20 [6, 13]: ✓
- extension of carbohydrate chain [6]: could not catalyze

B3: gGT25-3: glycosyltransferase protein with 475 amino acids, SEQ ID NO.: 18 (protein)
chain: MKSELIFLPAPAIGHLVGMVEMAKLFISRHENLSVTVLIAKFYMDTGVDNYNKSLLTNPTPRLTIVNLPETDPQNYMLKPRHAIFPSVIETQKTHVRDIISGMTQSESTQVVGLLADLLFINIMDIANEFNVPTYVYSPAGAGHLGLAFHLQTLNDKKQDVTEFRNSDTELLVPSFANPVPAEVLPSMYVDKEGGYDYLFSLFRRCRESKAIIINTFEELEPYAINSLRMDSMIPPIYPVGPILNLNGDGQNSDEAAVILGWLDDQPPSSVVFLCFGSYGSFQENQVKEIAMGLERSGHRFLWSLRPSIPKGETKLQLKYSNLKEILPVGFLDRTSCVGKVIGWAPQVAVLGHESVGGFLSHCGWNSTLESVWCGVPVATWPMYGEQQLNAFEMVKELGIAVEIEVDYKKDYFNMKNDFIVRAEEIETKIKKLMMDENNSEIRKKVKEMKEKSRAAMSENGSSYNSLAKLFEEIM
modifications: Panax ginseng; gGT25-3
- glycosylation of C6-OH of PPT (product Rg1 or Rh1) ([1]; 35° C., 12 hrs, TLC): C6-OH could be further glycosylated
- glycosylation of C20-OH of PPT (product F1) ([1]; 35° C., 12 hrs, TLC): glycosylated the C20-OH
- glycosylation of C20-OH of Rh1 [7]: could not be catalyzed
- glycosylation of C20-OH of Rg2 [8]: could not be catalyzed
- glycosylation of C20-OH of PPD (product CK) [3, 15]: glycosylated the C20-OH
- glycosylation of C20-OH of Rg3 (product Rd) [9]: further glycosylated at C20-OH
- glycosylation of C20-OH of Rh2 (product F2) [10]: further glycosylated at C20-OH
- glycosylation of C20-OH of DM (product 20-O-β-(D-glucopyranosyl)-dammarendiol II) [11]: could also glycosylate C20-OH
- glycosylation of C20-OH of Rf [12]: could not be catalyzed
- glycosylation site: C6 [6, 13]: ✓
- glycosylation site: C20 [6, 13]: ✓
- extension of carbohydrate chain [6]: could not catalyze

B4: gGT25-1: glycosyltransferase protein with 475 amino acids, SEQ ID NO.: 16 (protein)
chain: MKSELIFLPAPAIGHLVGMVEMAKLFISRHENLSVTVLIAKFYMDTGVDNYNKSLLTNPTPRLTIVNLPETDPQNYMLKPRHAIFPSVIETQKTHVRDIISGMTQSESTRVVGLLADLLFINIMDIANEFNVPTYVYSPAGAGHLGLAFHLQTLNDKKQDVTEFRNSDTELLVPSFANPVPAEVLPSMYVDKEGGYDYLFSLFRRCRESKAIIINTFEELEPYAINSLRMDSMIPPIYPVGPILNLNGDGQNSDEAAVILGWLDDQPPSSVVFLCFGSYGTFQENQVKEIAMGLERSGHRFLWSLRPSIPKGETKLQLKYSNLEEILPVGFLDRTSCVGKVIGWAPQVAVLGHEAVGGFLSHCGWNSTLESVWCGVPVATWPMYGEQQLNAFEMVKELGIAVEIEVDYKNEYFNMNNDFIVRAEEIETKIKKLMMDEKNSEIRKKVKEMKEKSRLAMSENGSSYNSLAKLFEEIM
modifications: Panax ginseng; gGT25-1
- glycosylation of C6-OH of PPT (product Rg1 or Rh1) ([1]; 35° C., 12 hrs, TLC): C6-OH could be further glycosylated
- glycosylation of C20-OH of PPT (product F1) ([1]; 35° C., 12 hrs, TLC): glycosylated the C20-OH
- glycosylation of C20-OH of Rh1 [7]: could not be catalyzed
- glycosylation of C20-OH of Rg2 [8]: could not be catalyzed
- glycosylation of C20-OH of PPD (product CK) [3, 15]: glycosylated the C20-OH
- glycosylation of C20-OH of Rg3 (product Rd) [9]: further glycosylated at C20-OH
- glycosylation of C20-OH of Rh2 (product F2) [10]: further glycosylated at C20-OH
- glycosylation of C20-OH of DM (product 20-O-β-(D-glucopyranosyl)-dammarendiol II) [11]: could also glycosylate C20-OH
- glycosylation of C20-OH of Rf [12]: could not be catalyzed
- glycosylation site: C6 [6, 13]: ✓
- glycosylation site: C20 [6, 13]: ✓
- extension of carbohydrate chain [6]: could not catalyze
